The target of assay [1] is T1, biotinylated renin D226A mutant (human, biotin (NHS-PEG4-Biotin), preferentially on N-terminal alpha-amino groups).
T1 construct: human renin D226A, as m1; source: HEK293EBNA cells, purified; biotinylated with EZ-link-NHS-PEG4-Biotin at pH 6.2
T1 sequence (P00797 67-406 with D226A, looked up): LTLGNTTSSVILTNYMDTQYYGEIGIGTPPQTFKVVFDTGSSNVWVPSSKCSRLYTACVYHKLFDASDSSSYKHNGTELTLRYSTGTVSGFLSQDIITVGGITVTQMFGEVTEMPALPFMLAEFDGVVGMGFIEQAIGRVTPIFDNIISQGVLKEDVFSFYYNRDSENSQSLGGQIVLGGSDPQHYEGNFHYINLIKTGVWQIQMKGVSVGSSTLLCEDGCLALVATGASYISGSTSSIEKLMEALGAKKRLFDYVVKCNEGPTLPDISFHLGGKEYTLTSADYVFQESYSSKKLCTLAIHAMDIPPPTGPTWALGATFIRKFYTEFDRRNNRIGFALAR
Nature of the assay: BLI; as a1 (biotinylated renin D226A on streptavidin biosensors), but KD from steady-state analysis because on and off rates were very fast. As to conditions: both partners purified. (In general: BLI is a label-free optical method that tracks binding on a fibre tip over time.)

The target of assay [2] is T1, biotinylated renin D226A mutant. Kind of assay: BLI; FortéBio Octet Red96; biotinylated renin D226A (2.5 μg/ml) loaded on streptavidin biosensors; 2-fold dilutions of AGT in 10 mM Tris, pH 7.4, 0.15 M NaCl, 1% BSA; 1:1 binding model, global fit; KD = koff/kon; three independent assays. As to conditions: both partners purified.

B1: spent AGT (human AGT without the N-terminal 10-residue angiotensin I peptide) (domain or fragment)
chain: VIHNESTCEQLAKANAGKPKDPTFIPAPIQAKTSPVDEKALQDQLVLVAAKLDTEDKLRAAMVGMLANFLGFRIYGMHSELWGVVHGATVLSPTAVFGTLASLYLGALDHTADRLQAILGVPWKDKNCTSRLDAHKVLSALQAVQGLLVAQGRADSQAQLLLSTVVGVFTAPGLHLKQPFVQGLALYTPVVLPRSLDFTELDVAAEKIDRFMQAVTGWKTGCSLMGASVDSTLAFNTYVHFQGKMKGFSLLAEPQEFWVDNSTSVSVPMLSGMGTFQHWSDIQDNFSVTQVPFTESACLLLIQPHYASDLDKVEGLTFQQNSLNWMKKLSPRTIHLTMPQLVLQGSYDLQDLLAQAELPAILHTELNLQKLSNDRIRVGEVLNSIFFELEADEREPTESTQQLNKPEVLEVTLNRPFLFAVYDQSATALHFLGRVANPLSTA
modifications: glycosylated
A word on the Kd: it is the equilibrium constant for the complex coming apart. Low readings indicate tighter binding, high ones weaker binding. Turning to B1, binding in assay [1] was characterised by a dissociation constant (Kd) of 13 µM.

B2: fully glycosylated WT human angiotensinogen (AGT) (natural protein)
chain: DRVYIHPFHLVIHNESTCEQLAKANAGKPKDPTFIPAPIQAKTSPVDEKALQDQLVLVAAKLDTEDKLRAAMVGMLANFLGFRIYGMHSELWGVVHGATVLSPTAVFGTLASLYLGALDHTADRLQAILGVPWKDKNCTSRLDAHKVLSALQAVQGLLVAQGRADSQAQLLLSTVVGVFTAPGLHLKQPFVQGLALYTPVVLPRSLDFTELDVAAEKIDRFMQAVTGWKTGCSLMGASVDSTLAFNTYVHFQGKMKGFSLLAEPQEFWVDNSTSVSVPMLSGMGTFQHWSDIQDNFSVTQVPFTESACLLLIQPHYASDLDKVEGLTFQQNSLNWMKKLSPRTIHLTMPQLVLQGSYDLQDLLAQAELPAILHTELNLQKLSNDRIRVGEVLNSIFFELEADEREPTESTQQLNKPEVLEVTLNRPFLFAVYDQSATALHFLGRVANPLSTA
modifications: N-linked glycans (fully glycosylated; glycosylation sites Asn14, Asn137, Asn271, Asn295)
By koff is commonly meant a measure of how fast the partners let go of each other. Higher therefore signals a short-lived complex. As usually defined, the kon is a measure of how fast the partners come together. A low value points to slower complex formation. B2: in assay [2], the Kd is 0.0203 µM, the koff came out at 0.000437 s⁻¹ and the kon was found to be 21500 M⁻¹ s⁻¹.

For the origin of these results see article PMC6378967, “Structural basis for the specificity of renin-mediated angiotensinogen cleavage” (The Journal of Biological Chemistry, 2018).
